The chains are these.
B1: KIAA1671 peptide 600-615 (Uncharacterized protein KIAA1671), 16-mer library wild type / MDM2 SWIB (MDM2 SWIB/MDM2 domain, residues 17-125) (parent)
chain 1: TPEDDRSFQTVWATVF
chain 2: SQIPASEQETLVRPKPLLLKLLKSVGAQKDTYTMKEVLFYLGQYIMTKRLYDEKQQHIVYCSNDLLGDLFGVPSFSVKEHRKIYTMIYRNLVVVNQQESSDSGTSVSEN
B2: PEX5 peptide 108-123 (Peroxisomal targeting signal 1 receptor), 16-mer library wild type / PEX14 Pex14 (PEX14 PEX14, residues 16-84) (parent)
chain 1: GVADLALSENWAQEFL
chain 2: TPGSENVLPREPLIATAVKFLQNSRVRQSPLATRRAFLKKKGLTDEEIDMAFQQSGTAADEPSSLGPAT
B3: SH3BP2 peptide 408-423 (SH3 domain-binding protein 2), 16-mer library wild type / TNKS ANK (TNKS 12 ANK repeats, residues 174-649) (parent)
chain 1: PQLPHLQRSPPDGQSF
chain 2: TGVPAVSGALRELLEACRNGDVSRVKRLVDAANVNAKDMAGRKSSPLHFAAGFGRKDVVEHLLQMGANVHARDDGGLIPLHNACSFGHAEVVSLLLCQGADPNARDNWNYTPLHEAAIKGKIDVCIVLLQHGADPNIRNTDGKSALDLADPSAKAVLTGEYKKDELLEAARSGNEEKLMALLTPLNVNCHASDGRKSTPLHLAAGYNRVRIVQLLLQHGADVHAKDKGGLVPLHNACSYGHYEVTELLLKHGACVNAMDLWQFTPLHEAASKNRVEVCSLLLSHGADPTLVNCHGKSAVDMAPTPELRERLTYEFKGHSLLQAAREADLAKVKKTLALEIINFKQPQSHETALHCAVASLHPKRKQVTELLLRKGANVNEKNKDFMTPLHVAAERAHNDVMEVLHKHGAKMNALDTLGQTALHRAALAGHLQTCRLLLSYGSDPSIISLQGFTAAQMGNEAVQQILSESTPIRTSD

The variants in one experiment derive from B1. Nature of the experiment: proteomic peptide phage display deep mutational scan (ProP-PD DMS): M13 P8 16-mer library selected against immobilised GST-tagged bait for four days (rounds), NGS of the eluted pools per day and pseudo-replica. As to conditions: with MDM2 SWIB (MDM2 SWIB/MDM2 domain, residues 17-125); bait immobilised on MaxiSorp plates (10 µg), library pre-cleared on GST, 2 h binding at 4 °C, five washes; one round per day, days 1-4; value from days 2 and 3; keep out of graded; scale: average fractional NGS count over selection days 2 and 3.
For chain 1 R6F, the screen value was found to be 0.000483. On to chain 1 R6E, for which the screen value was 6.31e-05. Still for that read-out and setting: for chain 1 R6L the value was 0.000264; for chain 1 T10M, 0.00046; for chain 1 T10F, 0.000114. Turning to chain 1 T10A, the screen value came out at 0.000165. The same measure, in the same setting: with chain 1 T10I the figure was 0.000209. On the same count and under the same terms, for chain 1 T10Q the value was 0.000116; for chain 1 T10S, 0.000471. Same read-out and setting: with chain 1 T10W the figure was 0.000295; with chain 1 T10L, 6.08e-05.

Turning to chain 1 T10D, the screen value turned out to be 1.9e-05.

On to chain 1 T10H, for which the screen value was found to be 0.000113. The same measure, in the same setting: for chain 1 T10Y the value was 0.000166.

Turning to chain 1 T10P, the screen value was 1.43e-05. In the case of chain 1 V11N, the screen value was 0.

For chain 1 V11H, the screen value is 0.0015. Still for that read-out and setting: for chain 1 V11Q the value was 0.00061. Same read-out and setting: for chain 1 V11L the value was 0.000339.

In the case of chain 1 V11Y, the screen value worked out at 0.000214. On the same count and under the same terms, for chain 1 V11A the value was 0.

As to chain 1 V11I, the screen value turned out to be 0.00157.

In the case of chain 1 V11M, the screen value worked out at 0.000226. With chain 1 V11T, the screen value turned out to be 0. Turning to chain 1 V11F, the screen value was found to be 0.000216. On the same count and under the same terms, for chain 1 V11E the value was 0; for chain 1 V11W, 0.00167.

In the next experiment the parent is B2. The experiment is described as above. As to conditions: with PEX14 Pex14 (PEX14 PEX14, residues 16-84); bait immobilised on MaxiSorp plates (10 µg), library pre-cleared on GST, 2 h binding at 4 °C, five washes; one round per day, days 1-4; value from days 2 and 3; scale: average fractional NGS count over selection days 2 and 3.
Turning to chain 1 GVADLALSENYAQEFL [chain 1 W11Y], the screen value worked out at 0.00018. On the same count and under the same terms, for chain 1 GVADLAHSENWAQEFL [chain 1 L7H] the value was 0. The same measure, in the same setting: for chain 1 GVADLALSGNWAQEFL [chain 1 E9G] the value was 0.000125; for chain 1 GVADLALSTNWAQEFL [chain 1 E9T], 9.07e-05; for chain 1 GVADLALSENWAQELL [chain 1 F15L], 0.000134. Same read-out and setting: with chain 1 GVADLALSENWAYEFL [chain 1 Q13Y] the figure was 0.00131; with chain 1 GVADLALSENWAREFL [chain 1 Q13R], 0.000241; with chain 1 GVADLALSENWPQEFL [chain 1 A12P], 0. Turning to chain 1 GVADLALSENWFQEFL [chain 1 A12F], the screen value was 0.000389.

With chain 1 GVADLALSENWSQEFL [chain 1 A12S], the screen value is 0.000254. chain 1 GVADLALKENWAQEFL [chain 1 S8K]: the screen value turned out to be 0. For the variant chain 1 GVADLALIENWAQEFL [chain 1 S8I], the screen value is 0.00069.

As for chain 1 GVADLALEENWAQEFL [chain 1 S8E], the screen value worked out at 0.000967. On the same count and under the same terms, for chain 1 GVADLALQENWAQEFL [chain 1 S8Q] the value was 0; for chain 1 GVADLALGENWAQEFL [chain 1 S8G], 0.000241. On the same count and under the same terms, with chain 1 GVADLALDENWAQEFL [chain 1 S8D] the figure was 0; with chain 1 GYADLALSENWAQEFL [chain 1 V2Y], 0.00067. The same measure, in the same setting: with chain 1 GWADLALSENWAQEFL [chain 1 V2W] the figure was 0. With chain 1 GEADLALSENWAQEFL [chain 1 V2E], the screen value amounted to 0.000749. Turning to chain 1 GQADLALSENWAQEFL [chain 1 V2Q], the screen value came out at 0.000476. As for chain 1 GNADLALSENWAQEFL [chain 1 V2N], the screen value is 0. The same measure, in the same setting: with chain 1 GRADLALSENWAQEFL [chain 1 V2R] the figure was 0; with chain 1 GVADNALSENWAQEFL [chain 1 L5N], 0; with chain 1 GVADLALSENWAQLFL [chain 1 E14L], 0.000529. The same measure, in the same setting: for chain 1 GVADLALSENWAQPFL [chain 1 E14P] the value was 0; for chain 1 GVAWLALSENWAQEFL [chain 1 D4W], 0.000313.

On to chain 1 GVAPLALSENWAQEFL [chain 1 D4P], for which the screen value stood at 0. On the same count and under the same terms, with chain 1 GVADLALSEIWAQEFL [chain 1 N10I] the figure was 0.000414; with chain 1 GVADLALSESWAQEFL [chain 1 N10S], 0.000139.

As to chain 1 GVADLALSENWAQEFP [chain 1 L16P], the screen value was determined as 0.000186.

Turning to chain 1 GVADLALSENWAQEFK [chain 1 L16K], the screen value worked out at 0.000183.

For the variant chain 1 GVADLALSENWAQEFW [chain 1 L16W], the screen value was found to be 0.00162.

The variants in another experiment derive from B3. The description is as above. As to conditions: with TNKS ANK (TNKS 12 ANK repeats, residues 174-649); bait immobilised on MaxiSorp plates (10 µg), library pre-cleared on GST, 2 h binding at 4 °C, five washes; one round per day, days 1-4; value from days 2 and 3; keep out of graded; scale: average fractional NGS count over selection days 2 and 3.
Regarding chain 1 PQLPHLQRSPPPGQSF [chain 1 D12P], the screen value came out at 4.27e-05. Same read-out and setting: with chain 1 PQLPHLQRSPPYGQSF [chain 1 D12Y] the figure was 3.32e-05; with chain 1 PQLPHLQRSPPTGQSF [chain 1 D12T], 6.11e-05; with chain 1 PQLPHLQRSPPHGQSF [chain 1 D12H], 5.06e-05. On the same count and under the same terms, for chain 1 PQLPHLQRSPPFGQSF [chain 1 D12F] the value was 0. Still for that read-out and setting: with chain 1 PQLPHKQRSPPDGQSF [chain 1 L6K] the figure was 8.36e-05; with chain 1 PQLPHIQRSPPDGQSF [chain 1 L6I], 6.25e-05; with chain 1 PQLPHLRRSPPDGQSF [chain 1 Q7R], 0.000135. As to chain 1 PQLPHLNRSPPDGQSF [chain 1 Q7N], the screen value was 0.000104.

For chain 1 PQLPHLPRSPPDGQSF [chain 1 Q7P], the screen value worked out at 3e-05.

For chain 1 PQDPHLQRSPPDGQSF [chain 1 L3D], the screen value was 9.07e-05. With chain 1 PQGPHLQRSPPDGQSF [chain 1 L3G], the screen value was 6.04e-05. On the same count and under the same terms, for chain 1 PQWPHLQRSPPDGQSF [chain 1 L3W] the value was 5.02e-05; for chain 1 PQLPHLQRSPFDGQSF [chain 1 P11F], 3.04e-05; for chain 1 PQLPHLQRSPQDGQSF [chain 1 P11Q], 0. On the same count and under the same terms, for chain 1 PQLPHLQRSPHDGQSF [chain 1 P11H] the value was 0; for chain 1 PQLPHLQRSPTDGQSF [chain 1 P11T], 7.13e-05.

With chain 1 PQLPHLQRSPSDGQSF [chain 1 P11S], the screen value stood at 2.19e-05. Still for that read-out and setting: with chain 1 PQLPHLQRSPMDGQSF [chain 1 P11M] the figure was 0.

Regarding chain 1 PQLPHLQRSPEDGQSF [chain 1 P11E], the screen value is 0. Still for that read-out and setting: for chain 1 PQLPHLQRSPIDGQSF [chain 1 P11I] the value was 0; for chain 1 PQLPHLQRSPLDGQSF [chain 1 P11L], 0; for chain 1 PWLPHLQRSPPDGQSF [chain 1 Q2W], 3.04e-05. As to chain 1 PQLPHLQRSPPDGQSK [chain 1 F16K], the screen value turned out to be 4.17e-05. On the same count and under the same terms, with chain 1 PQLPHLQRSPPDGQSS [chain 1 F16S] the figure was 9.92e-05; with chain 1 PQLFHLQRSPPDGQSF [chain 1 P4F], 5.23e-05; with chain 1 PQLKHLQRSPPDGQSF [chain 1 P4K], 0.000103. On the same count and under the same terms, for chain 1 PQLRHLQRSPPDGQSF [chain 1 P4R] the value was 3.21e-05; for chain 1 PQLPHLQRGPPDGQSF [chain 1 S9G], 7.17e-05; for chain 1 PQLPHLQRRPPDGQSF [chain 1 S9R], 9.97e-05. Same read-out and setting: with chain 1 PQLPHLQRSPPDGDSF [chain 1 Q14D] the figure was 6.15e-05; with chain 1 PQLPHLQRSPPDGWSF [chain 1 Q14W], 0.000114; with chain 1 PQLPHLQRSPPDGPSF [chain 1 Q14P], 3.92e-05. As for chain 1 PQLPHLQRSPPDGQGF [chain 1 S15G], the screen value was found to be 9.21e-05. Same read-out and setting: with chain 1 PQLPHLQRSPPDWQSF [chain 1 G13W] the figure was 0; with chain 1 PQLPHLQRSPPDQQSF [chain 1 G13Q], 0. The same measure, in the same setting: for chain 1 PQLPHLQRSPPDAQSF [chain 1 G13A] the value was 0; for chain 1 PQLPELQRSPPDGQSF [chain 1 H5E], 9.9e-05; for chain 1 PQLPALQRSPPDGQSF [chain 1 H5A], 0.000105.

In the case of chain 1 PQLPWLQRSPPDGQSF [chain 1 H5W], the screen value amounted to 7.66e-05.

On to chain 1 PQLPMLQRSPPDGQSF [chain 1 H5M], for which the screen value came to 6.6e-05. Same read-out and setting: with chain 1 PQLPNLQRSPPDGQSF [chain 1 H5N] the figure was 3.1e-05; with chain 1 PQLPDLQRSPPDGQSF [chain 1 H5D], 5.12e-05; with chain 1 PQLPLLQRSPPDGQSF [chain 1 H5L], 0.000101.

chain 1 PQLPHLQRSRPDGQSF [chain 1 P10R]: the screen value was 5.9e-05. Still for that read-out and setting: with chain 1 PQLPHLQRSMPDGQSF [chain 1 P10M] the figure was 0.000103; with chain 1 PQLPHLQWSPPDGQSF [chain 1 R8W], 0; with chain 1 PQLPHLQYSPPDGQSF [chain 1 R8Y], 0. On the same count and under the same terms, with chain 1 PQLPHLQSSPPDGQSF [chain 1 R8S] the figure was 8.91e-05; with chain 1 PQLPHLQASPPDGQSF [chain 1 R8A], 0; with chain 1 PQLPHLQFSPPDGQSF [chain 1 R8F], 0. Consider chain 1 PQLPHLQHSPPDGQSF [chain 1 R8H], for which the screen value was determined as 0.

For the origin of these results see paper PMC12102759.
